In US8410061:

Columns and labels:
[1] = molecular target: patched-1 of C3H10T1/2 cells (endogenous hedgehog receptor) (mouse (cell line C3H10T1/2 is stated to be mouse)) (UniProt Q61115); test: cell-based or functional assay
[2] = molecular target: Myc-tagged patched-1 on transiently transfected human embryonic kidney 293 (EBNA-293) cells; test: FACS competition with Shh-Ig (5 nM) on 293 cells transfected with Myc-tagged patched-1
Myc-tagged patched-1 on transiently transfected human embryonic kidney 293 (EBNA-293) cells, sequence (Q61115 whole entry): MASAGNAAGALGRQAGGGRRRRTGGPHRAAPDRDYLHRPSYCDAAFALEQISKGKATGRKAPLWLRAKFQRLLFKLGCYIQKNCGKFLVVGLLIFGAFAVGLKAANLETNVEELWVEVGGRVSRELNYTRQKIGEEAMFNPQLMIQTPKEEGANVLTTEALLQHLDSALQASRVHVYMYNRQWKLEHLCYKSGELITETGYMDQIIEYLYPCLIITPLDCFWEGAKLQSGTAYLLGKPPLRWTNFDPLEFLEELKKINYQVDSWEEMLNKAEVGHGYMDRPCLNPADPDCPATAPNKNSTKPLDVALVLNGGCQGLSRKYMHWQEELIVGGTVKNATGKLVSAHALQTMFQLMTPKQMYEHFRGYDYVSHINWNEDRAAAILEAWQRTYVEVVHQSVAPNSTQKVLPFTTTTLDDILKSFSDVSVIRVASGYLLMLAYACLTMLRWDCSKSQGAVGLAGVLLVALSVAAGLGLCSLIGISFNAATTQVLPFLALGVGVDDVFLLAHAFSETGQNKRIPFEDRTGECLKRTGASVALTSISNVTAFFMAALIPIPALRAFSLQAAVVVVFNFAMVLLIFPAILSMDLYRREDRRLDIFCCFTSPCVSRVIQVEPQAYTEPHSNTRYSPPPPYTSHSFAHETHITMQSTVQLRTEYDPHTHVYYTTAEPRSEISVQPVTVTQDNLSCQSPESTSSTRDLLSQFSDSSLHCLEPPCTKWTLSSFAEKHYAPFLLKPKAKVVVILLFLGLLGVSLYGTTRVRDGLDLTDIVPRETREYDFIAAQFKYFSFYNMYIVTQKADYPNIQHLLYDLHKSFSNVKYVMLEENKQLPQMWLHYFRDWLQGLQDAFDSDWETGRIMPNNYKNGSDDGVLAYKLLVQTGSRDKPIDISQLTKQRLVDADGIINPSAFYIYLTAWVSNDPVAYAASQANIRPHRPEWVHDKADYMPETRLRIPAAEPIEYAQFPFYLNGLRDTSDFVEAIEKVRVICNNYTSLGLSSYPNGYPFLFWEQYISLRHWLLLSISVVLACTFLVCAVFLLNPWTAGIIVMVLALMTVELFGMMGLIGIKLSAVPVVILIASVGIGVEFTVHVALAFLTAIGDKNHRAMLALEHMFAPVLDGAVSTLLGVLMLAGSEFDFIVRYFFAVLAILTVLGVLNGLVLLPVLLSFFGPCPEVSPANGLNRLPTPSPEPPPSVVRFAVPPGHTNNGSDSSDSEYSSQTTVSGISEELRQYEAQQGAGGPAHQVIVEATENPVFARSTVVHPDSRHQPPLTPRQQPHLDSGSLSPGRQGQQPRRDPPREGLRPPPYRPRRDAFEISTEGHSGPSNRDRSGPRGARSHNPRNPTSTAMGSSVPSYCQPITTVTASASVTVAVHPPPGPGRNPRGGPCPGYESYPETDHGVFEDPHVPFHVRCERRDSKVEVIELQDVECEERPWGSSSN

patched-1 of C3H10T1/2 cells (endogenous hedgehog receptor) (mouse (cell line C3H10T1/2 is stated to be mouse)), sequence (Q61115 whole entry): as above

Shh (N-5), Sonic hedgehog variant lacking residues CGPGR from the N-terminus (from UniProt Q15465 29-197) (ligand)
block of AP activity induced by mature Shh in C3H10T1/2 cells, IC50 [1]: 80 nM

Shh (N-10), Sonic hedgehog variant lacking the first 10 N-terminal amino acids (from UniProt Q15465 34-197) (ligand)
block of AP induction by mature Shh (2.5 ug/ml) in C3H10T1/2 cells, IC50 [1]: 250 nM

Shh (N-9/C-3), Sonic hedgehog variant lacking … from the N-terminus and SGG from the C-terminus (from UniProt Q15465 33-194) (ligand)
block of AP activity induced by mature Shh in C3H10T1/2 cells, IC50 [1]: 80 nM

human mature Sonic hedgehog N-terminal domain (from UniProt Q15465 24-197) (ligand)
IC50 [2]: 3.5 nM

Shh (C1S), Sonic hedgehog N-terminal domain with the N-terminal cysteine replaced by serine (from UniProt Q15465 25-197) (ligand)
block of AP induction by human Shh in C3H10T1/2 cells, IC50 [1]: 500000 nM | IC50 [2]: 1 nM
